B1: Protein Vpx (Simian immunodeficiency virus (isolate PBj14/BCL-3)), P19508 (parent)
chain: MSDPRERIPPGNSGEETIGEAFDWLDRTVEEINRAAVNHLPRELIFQVWRRSWEYWHDEMGMSVSYTKYRYLCLIQKAMFMHCKKGCRCLGGEHGAGGWRPGPPPPPPPGLA
B2: Protein Vpr (Human immunodeficiency virus type 1 group M subtype B (isolate BRU/LAI)), P05928 (parent)
chain: MEQAPEDQGPQREPHNEWTLELLEELKNEAVRHFPRIWLHGLGQHIYETYGDTWAGVEAIIRILQQLLFIHFRIGCRHSRIGVTQQRRARNGASRS

Variants of: B1
Conditions: with DCAF1, Q9Y4B6-3
Target sequence in this assay (Q9Y4B6 other isoform, or with tags, fused parts or gaps): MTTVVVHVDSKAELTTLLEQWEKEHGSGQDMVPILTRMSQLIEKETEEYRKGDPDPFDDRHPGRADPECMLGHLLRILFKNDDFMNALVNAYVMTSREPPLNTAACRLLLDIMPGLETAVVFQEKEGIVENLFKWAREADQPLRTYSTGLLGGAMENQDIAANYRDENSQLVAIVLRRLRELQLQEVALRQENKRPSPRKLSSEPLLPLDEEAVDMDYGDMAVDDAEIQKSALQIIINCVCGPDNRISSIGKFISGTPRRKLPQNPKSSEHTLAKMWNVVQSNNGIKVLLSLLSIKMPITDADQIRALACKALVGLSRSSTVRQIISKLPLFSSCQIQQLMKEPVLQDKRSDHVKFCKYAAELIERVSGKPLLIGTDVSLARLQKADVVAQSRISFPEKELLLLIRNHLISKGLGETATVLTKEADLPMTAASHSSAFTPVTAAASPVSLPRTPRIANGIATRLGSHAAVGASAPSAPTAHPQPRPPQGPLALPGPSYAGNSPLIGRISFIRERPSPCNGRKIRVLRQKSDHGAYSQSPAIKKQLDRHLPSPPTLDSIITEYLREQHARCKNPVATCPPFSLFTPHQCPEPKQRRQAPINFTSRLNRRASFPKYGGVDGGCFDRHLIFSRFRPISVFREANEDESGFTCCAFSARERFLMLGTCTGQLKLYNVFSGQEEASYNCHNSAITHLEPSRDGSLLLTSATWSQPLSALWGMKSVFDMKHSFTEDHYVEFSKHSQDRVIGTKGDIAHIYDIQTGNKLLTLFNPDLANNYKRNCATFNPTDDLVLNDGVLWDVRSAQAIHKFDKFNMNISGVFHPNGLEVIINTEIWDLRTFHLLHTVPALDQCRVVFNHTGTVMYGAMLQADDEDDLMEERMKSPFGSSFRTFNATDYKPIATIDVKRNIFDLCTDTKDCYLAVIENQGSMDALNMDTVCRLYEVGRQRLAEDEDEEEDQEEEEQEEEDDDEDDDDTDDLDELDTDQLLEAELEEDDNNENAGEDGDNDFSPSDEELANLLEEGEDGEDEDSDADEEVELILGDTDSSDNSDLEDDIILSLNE

Variant	effect of a mutation on the interaction
Q76R	disrupting interaction

Variants of: B2
Conditions: with DCAF1, Q9Y4B6-3
Target sequence in this assay (Q9Y4B6 other isoform, or with tags, fused parts or gaps): as above

Variant	effect of a mutation on the interaction
Q65R	disrupting interaction
Q65A	disrupting interaction

— IntAct's records for PubMed 17314515
